# Assay results published in patent US20260008803A1.
# Assays:
# FcγRIIIa [1] = target: FcγRIIIa (UniProt P08637); test: SPR; fold improvement in binding avidity, commercial rituximab as the reference
# FcγRIIIa [2] = target: FcγRIIIa (UniProt P08637); test: SPR (Biacore T200, single cycle kinetics, 25 C); antibody captured by anti-human Fab, FcγRIIIa as analyte; 1:1 Langmuir fit
# FcγRIIIa [3] = target: FcγRIIIa (UniProt P08637); test: SPR; fold improvement in binding avidity against commercial rituximab
# FcγRIIIa, sequence (P08637 17-208 limits assumed): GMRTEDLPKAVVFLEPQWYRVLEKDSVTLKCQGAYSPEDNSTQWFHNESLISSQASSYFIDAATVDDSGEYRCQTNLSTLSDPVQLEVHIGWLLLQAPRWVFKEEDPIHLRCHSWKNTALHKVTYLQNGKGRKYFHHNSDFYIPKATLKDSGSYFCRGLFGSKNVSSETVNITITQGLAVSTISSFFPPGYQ
Fold (FcγRIIIa [1]),Kd (FcγRIIIa [2]),koff (FcγRIIIa [2]),kon (FcγRIIIa [2]),Fold (FcγRIIIa [3]),Substance
1 fold,306 nM,0.0705 s⁻¹,231000 M⁻¹ s⁻¹,,"Rituximab (commercial sample; Rituxan, Roche) (antibody)"
,8.18 nM,0.002 s⁻¹,244000 M⁻¹ s⁻¹,37.4 fold,"Rituximab IgG1 homogeneous glycoform with α2,6-linked 3F^ax-Neu5Ac-terminated biantennary N-glycan (without core fucose) (antibody)"
,7.67 nM,0.00206 s⁻¹,268000 M⁻¹ s⁻¹,39.9 fold,"Rituximab IgG1 homogeneous glycoform with α2,6-linked Neu5Ac-terminated biantennary N-glycan (G2S2, without core fucose) (antibody)"
